Experimental data published in US20040005672A1, “Heterologous production of polyketides” (priority 2002, published 2004).
Entries after “also recorded” stand apart in the source; their conditions may differ.

Experiments:
[1] = Stability of acyl-CoAs in TCA and mutase assay buffer (HPLC); assay type: physicochemical; details: five minutes under the mutase assay conditions, 30° C
Procedure: To test whether acyl-CoAs degrade in TCA, the following tests were conducted. The CoA mix consisted of 1.6 mM each of malonyl-, methylmalonyl-, succinyl-, acetyl-, and propionyl-CoA, plus 0.5 mM CoA. An aliquot (10 μL) of this mix was added to 100 μL 10% TCA, 50 μL were immediately injected to the HPLC for CoA analysis, and the remainder was promptly frozen on dry ice. The frozen portion was then thawed and loaded immediately to the HPLC. Again, 10 μL of the CoA mix were added to 100 μL 10% TCA, 50 μL were left on ice for 15 minutes and then injected to the HPLC, the remainder was left at 4° C. overnight and injected to the HPLC the next morning. The area under each CoA peak was noted. This same procedure was followed but using a mixture of TCA and buffer A from the mutase assay.
The CoA analysis described here is carried out on cells which are lysed in 10% TCA. […] Thus, the CoAs are stable in TCA and in the mutase assay buffer after the cells are lysed or after the assays are completed, and prior to HPLC analysis.
Although the CoAs are stable in TCA and buffer at 4° C., they degraded at 30° C., the temperature at which the mutase assay was performed. In five minutes under the assay conditions, about 4% of the methylmalonyl-CoA hydrolyzed to CoA. […] Thus, the mutase assay is suboptimal for extremely quantitative results.

[2] = Spontaneous chemical epimerization between (R)- and (S)-mm-CoA; assay type: physicochemical; details: in 15 minutes
DEBS or DEBS1+TE = details: cited from earlier work
[3] = substrate: C[C@H](C(=O)O)C(=O)SCCNC(=O)CCNC(=O)[C@H](O)C(C)(C)COP(=O)(O)OP(=O)(O)OC[C@H]1O[C@@H](n2cnc3c(N)ncnc32)[C@H](O)[C@@H]1OP(=O)(O)O; assay: Methylmalonyl-CoA epimerase steady state kinetics (transcarboxylase/malate dehydrogenase coupled assay, A340); assay type: biochemical, Propionibacterium freudenreichii subsp. shermanii; details: other: 30° C, pH 6.9, (2RS)-methylmalonyl-CoA 27 μM to 160 μM, (2R) concentration assumed one-half of (2RS), epimerase activated with CoCl2
Procedure: (§1) Methylmalonyl-CoA epimerase assay. Enzyme activity was assayed at 30° C. using a modification of a reported method (27). The epimerase (0.54 mg/ml) was first activated with 100 μM CoCl2 at 4° C. for 1 h. Reaction mixtures (1.5 mL) contained 0.2 M potassium phosphate buffer pH 6.9, 0.1 M NH4SO4, 5 mM Na pyruvate, 0.08 mM (2RS)-methylmalonyl-CoA, 0.05 units transcarboxylase, 0.16 mM NADH, and 2.5 units of malate dehydrogenase. The reaction was initiated with (2RS)-methylmalonyl-CoA, and the decrease in A340 concomitant with consumption of the S-isomer was allowed to stabilize. Limiting epimerase was added to catalyze conversion of the remaining R- to S-isomer, and the initial rate and total decrease in A340 were monitored. For kinetic studies, -1.2 nM epimerase was incubated with varying amounts of (2RS)-methylmalonyl-CoA (27 μM to 160 μM). The (2R)-methylmalonyl-CoA concentrations were assumed to be one-half of the concentration of (2RS)-methylmalonyl-CoA.
Heterologous expression and purification of the epimerases. E. coli BL21(DE3) harboring either pKOS143-28-8 (P. shermanii epimerase) or pKOS117-174-A37 (S. coelicolor epimerase) was grown in 750 ml LB (100 μg/ml carbenicillin) at 37° C. until late log phase, then induced with IPTG to 1 mM final concentration and grown for an additional 3 h at 30° C. The cells were collected by centrifugation, and the pellets were stored at −80° C. […]

[4] = substrate: C[C@H](C(=O)O)C(=O)SCCNC(=O)CCNC(=O)[C@H](O)C(C)(C)COP(=O)(O)OP(=O)(O)OC[C@H]1O[C@@H](n2cnc3c(N)ncnc32)[C@H](O)[C@@H]1OP(=O)(O)O; assay: as above; assay type: biochemical, Streptomyces coelicolor; details: other: 30° C, pH 6.9, (2RS)-methylmalonyl-CoA 27 μM to 160 μM, (2R) concentration assumed one-half of (2RS), epimerase activated with CoCl2
Procedure: as §1
S. coelicolor methylmalonyl-CoA epimerase gene. The P. shermanii methylmalonyl-CoA epimerase DNA sequence was used to search the S. coelicolor genomic database (www.sanger.ac.uk/Projects/S coelicolor) using the BLAST programs at the National Center for Biotechnology Information, NIH website (37), and S. coelicolor gene 8F4.02c was identified as a putative methylmalonyl-CoA epimerase. […]

[5] = Methylmalonyl-CoA mutase assay in crude cell extracts (HPLC, conversion of methylmalonyl-CoA to succinyl-CoA); assay type: biochemical; details: cells grown without hydroxocobalamin; extracts not supplemented with B12
Procedure: The mutase assay was performed as follows. All operations were performed in the dark or under a red safelight. The pellet from 25 mL of culture was thawed, washed in buffer C (50 mM potassium phosphate pH 7.4, 5 mM EDTA, 10% glycerol), and resuspended in 0.5 mL of buffer C containing protease inhibitors (1 tablet per 10 mL of buffer). Following sonication on ice, the extract was clarified by centrifugation at 4° C. for 10 minutes at maximum speed in an Eppendorf microfuge; the supernatent was assayed. Enzyme assays contained, in a final volume of 100 μL, 0.2 mM (2R,2S)-methylmalonyl-CoA, mutase extract, and buffer C containing protease inhibitors. Reactions for assays with vitamin B12 were as above but contained 0.01 mM vitamin B12, in which case the mutase extract was incubated with the vitamin B12 in a total volume of 75 μL for 5 minutes at 30° C. prior to initiation of reaction with methylmalonyl-CoA. After the desired length of incubation at 30° C., the reaction was stopped by the addition of 50 μL of 10% trichloroacetic acid (TCA) and placed on ice for approximately 10 minutes. […] An aliquot (100 μL) of the supernatant was injected onto the HPLC to quantify conversion of methylmalonyl-CoA to succinyl-CoA. […]
Methylmalonyl-CoA mutase assay. […] After centrifugation, 100 μl of the supernatant was analyzed by HPLC to quantify conversion of methylmalonyl-CoA to succinyl-CoA.

Q: For CC(C(=O)O)C(=O)SCCNC(=O)CCNC(=O)[C@H](O)C(C)(C)COP(=O)(O)OP(=O)(O)OC[C@H]1O[C@@H](n2cnc3c(N)ncnc32)[C@H](O)[C@@H]1OP(=O)(O)O (stereo partly drawn) [methylmalonyl-CoA], which “hydrolyzed to CoA” value [1] is on record?
A: The value was “about 4%”.

Q: And the spontaneous chemical epimerization [2]?
A: Its spontaneous chemical epimerization is “approximately 3%”.

Q: For CC(C)(COP(=O)(O)OP(=O)(O)OC[C@H]1O[C@@H](n2cnc3c(N)ncnc32)[C@H](O)[C@@H]1OP(=O)(O)O)[C@@H](O)C(=O)NCCC(=O)NCCSC(=O)CCC(=O)O [succinyl-CoA], which “hydrolyzed to CoA” value [1] is on record?
A: The value was “comparable rate”.

Q: For C[C@@H](C(=O)O)C(=O)SCCNC(=O)CCNC(=O)[C@H](O)C(C)(C)COP(=O)(O)OP(=O)(O)OC[C@H]1O[C@@H](n2cnc3c(N)ncnc32)[C@H](O)[C@@H]1OP(=O)(O)O [(2S)-methylmalonyl-CoA], which Km (DEBS or DEBS1+TE) is on record?
A: The Km was about 25 µM.

B1: Propionibacterium shermanii methylmalonyl-CoA epimerase (EC 5.1.99.1), wild type, recombinant, GenBank AY046899 (Propionibacterium freudenreichii subsp. … (protein)
chain: MSNEDLFICIDHVAYACPDADEASKYYQETFGWHELHREENPEQGVVEIMMAPAAKLTEHMTQVQVMAPLNDESTVAKWLAKHNGRAGLHHMAWRVDDIDAVSATLRERGVQLLYDEPKLGTGGNRINFMHPKSGKGVLIELTQYPKN
Q: For B1, which Km [3] is on record?
A: The Km was 38 µM.

Q: And the kcat [3]?
A: The kcat was 150 s⁻¹.

B2: Streptomyces coelicolor methylmalonyl-CoA epimerase, wild type, recombinant (gene 8F4.02c) (Streptomyces coelicolor A3(2)) (protein)
chain: MLTRIDHIGIACHDLDATVEFYRATYGFEVFHTEVNEEQGVREAMLKINDTSDGGASYLQLLEPTREDSAVGKWLAKNGEGVHHIAFGTADVDADAADIRDKGVRVLYDEPRRGSMGSRITFLHPKDCHGVLTELVTSAAVESPEH
notes: (2RS)-methylmalonyl-CoA substrate
Q: With B2 as the molecule, how does the Km [4] read?
A: Its Km is 57 µM.

Q: What about the kcat [4] of the same molecule?
A: Its kcat is 75 s⁻¹.

B3: mutase: methylmalonyl-CoA mutase (EC 5.4.99.2) from P. shermanii, expressed in E. coli (protein, UniProt P11652 2-638; P11653 2-728, looked up)
Methylmalonyl-CoA mutase … 1: SSTDQGTNPADTDDLTPTTLSLAGDFPKATEEQWEREVEKVLNRGRPPEKQLTFAECLKRLTVHTVDGIDIVPMYRPKDAPKKLGYPGVAPFTRGTTVRNGDMDAWDVRALHEDPDEKFTRKAILEGLERGVTSLLLRVDPDAIAPEHLDEVLSDVLLEMTKVEVFSRYDQGAAAEALVSVYERSDKPAKDLALNLGLDPIAFAALQGTEPDLTVLGDWVRRLAKFSPDSRAVTIDANIYHNAGAGDVAELAWALATGAEYVRALVEQGFTATEAFDTINFRVTATHDQFLTIARLRALREAWARIGEVFGVDEDKRGARQNAITSWRDVTREDPYVNILRGSIATFSASVGGAESITTLPFTQALGLPEDDFPLRIARNTGIVLAEEVNIGRVNDPAGGSYYVESLTRSLADAAWKEFQEVEKLGGMSKAVMTEHVTKVLDACNAERAKRLANRKQPITAVSEFPMIGARSIETKPFPAAPARKGLAWHRDSEVFEQLMDRSTSVSERPKVFLACLGTRRDFGGREGFSSPVWHIAGIDTPQVEGGTTAEIVEAFKKSGAQVADLCSSAKVYAQQGLEVAKALKAAGAKALYLSGAFKEFGDDAAEAEKLIDGRLFMGMDVVDTLSSTLDILGVAK
Methylmalonyl-CoA mutase … 2: STLPRFDSVDLGNAPVPADAARRFEELAAKAGTGEAWETAEQIPVGTLFNEDVYKDMDWLDTYAGIPPFVHGPYATMYAFRPWTIRQYAGFSTAKESNAFYRRNLAAGQKGLSVAFDLPTHRGYDSDNPRVAGDVGMAGVAIDSIYDMRELFAGIPLDQMSVSMTMNGAVLPILALYVVTAEEQGVKPEQLAGTIQNDILKEFMVRNTYIYPPQPSMRIISEIFAYTSANMPKWNSISISGYHMQEAGATADIEMAYTLADGVDYIRAGESVGLNVDQFAPRLSFFWGIGMNFFMEVAKLRAARMLWAKLVHQFGPKNPKSMSLRTHSQTSGWSLTAQDVYNNVVRTCIEAMAATQGHTQSLHTNSLDEAIALPTDFSARIARNTQLFLQQESGTTRVIDPWSGSAYVEELTWDLARKAWGHIQEVEKVGGMAKAIEKGIPKMRIEEAAARTQARIDSGRQPLIGVNKYRLEHEPPLDVLKVDNSTVLAEQKAKLVKLRAERDPEKVKAALDKITWAAGNPDDKDPDRNLLKLCIDAGRAMATVGEMSDALEKVFGRYTAQIRTISGVYSKEVKNTPEVEEARELVEEFEQAEGRRPRILLAKMGQDGHDRGQKVIATAYADLGFDVDVGPLFQTPEETARQAVEADVHVVGVSSLAGGHLTLVPALRKELDKLGRPDILITVGGVIPEQDFDELRKDGAVEIYTPGTVIPESAISLVKKLRASLDA
Q: Which mutase activity [5] does the source give for B3 here?
A: The mutase activity was “no mutase activity was observed; also recorded: undetectable”.
